Source: patent US20250243282A1 (TRUEBINDING, published 2025)

Key:
[1] = molecular target: T1, Recombinant human Gal3 (rhGal3) (TrueBinding, #QC200361) (human, UniProt P17931 2-250); test: cell-based or functional assay
[2] = molecular target: T1, Recombinant human Gal3 (rhGal3) …; test: cell-based or functional assay; remark: listed apart in the source
Also: test concentration or dose not given here.

Binder	% inhibition of CD62L shedding [1] [%]	% inhibition of IL-6 secretion [2] [%]	% inhibition of TNFα secretion [2] [%]
849.2D7 (antibody, V domains shown) VH: QVQLQQSGPQLVRPGASVKISCKASGYSFTNYWMHWVKQRPGQGLEWIGMIDPSDSETRLNQKFKDKATLTVDKSSSTAYMQLSSPTSEDSAVYYCATGRPDYWGQGTTLTVSS VL: DIVMTQSHKFMSTSVGDRVSITCKASQDVSTAVAWYQQKPGQSPKLLIYWASTRHTGVPDRFTGSGSGTDYTLTISSVQAEDLALYYCQQHYSTPYTFGGGTKLEIK	78.1	39	42.7
847.23F11 (antibody, V domains shown) VH: QVQLQQSGAELVRPGASVKLSCKASGYTFTSSWMNWVKQRPGQGLDWIGMIDPSDSETHYNQMFKDKATLTVDKSSNTAYMQLSRLTSEDSAVYYCVNSNYESGYWGQGTTLTVSS VL: DILMTQSHKFMSTSVGDRVSITCKASQDVSSVVVWYQQKPGQSPKQLIYWASTRHTGVPDRFTGSGSGTDYTLTISSVQAEDLALYYCQQHYSTPYTFGGGTKLEIK	15.2	–	–
15F10.2D6 (antibody, mouse IgG2a, V domains shown) VH: EVQLVESGGGLVKPGGSLKLSCAASGFAFSSYAMSWVRQTPEKRLEWVATISDGGVYTYYTDHVKGRFTISRDNAEDNLYLQMSHLKSEDTAMYYCVRDGGYWGQGTTLTVSS VL: DVLMTQTPLSLPVSLGDQASISCRSSQSIVHNNGNTYLEWYLQKPGQSPKLLIYKVSNRFSGVPDRFSGSGSGTDFTLKISRVEAEDLGVYYCFQGSHVPLTFGGGTKLELKR	82.5	51.5	73.5
F849C.8D10 (antibody, human IgG4 S228P, kappa, V domains shown) VH: QVQLQQTGAELVKPGASVKLSCKASGYTFTSYWINWVKQRPGQGLEWIGNIYPGSSSIYYSEKFKSKATLTVDTSSSTAYMQLSSLTSDDSAVYYCARWGYWGQGTTLTVSS VL: DVLMTQTPLSLPVSLGDQASISCRSSQDIVHSSGNTYLEWYLQKPGQSLKLLIYKVSNRFSGVPDRFSASGSGTDFTLKISRVEAEDLGVYYCFQGSHVPPTFGSGTKLEIKR	180	-75.8	-5.5
7D8.2D8 (antibody, mouse IgG2a, V domains shown) VH: EVQLVESGGGLVKPGGSLKLSCAASGFTFSSYAMSWVRQTPEKRLEWVATISDGGIYTYYPDNVKGRFTISRDNAKNNLFLQMSHLKSEDTAMYYCVRDGGYWGQGTTLTVSS VL: DVLMTQTPLSLPVSLGDQASISCRSSQSIVHSNGNTYLEWYLQKPGQSPKLLIYKVSNRFSGVPDRFSGSGSGTDFTLKISRVEAEDLGVYYCFQGSHVPLTFGAGTKLELKR	88.6	17.4	-11.5
20H5.A3 (antibody, mouse IgG2a, V domains shown) VH: QIQLVQSGPELKKPGESVKISCKASGYAFTTYGMSWVQQAPGKGLKWMGWVNTYSGVPTCADDFKGRFAFSLETSASTAYLQINNLRNEDTATYFCARGPYAMDYWGQGTSVTVSS VL: DIQMTQTTSSLSASLGDRVTINCSASQDISNYLNWYQQKPDGTVKLLIYYTSSLLSGVPSRFSGSGSGTDYSLTISNLEPEDIATYFCQQYSKLPYTFGSGTHLEIKR	66.3	77.5	60.8
23H9.2E4 (antibody, mouse IgG2a, V domains shown) VH: QIQLVQSGPELKKPGETVKISCKASGYTFTTYAMSWVKQAPGKGLKWMGWINTYSGVPTYADDLKGRFAFSLETSASTAYLQINNLKNEDTATYFCARGPYAMDYWGQGTSVTVSS VL: DIQMTQTTSSLSASLGDRVTISCSASQGINNYLNWYQQKPDGTVKLLIYYASSLHSGVPSRFSGSGSGTDYSLTISNLEPEDIATYYCQQYSQVPYTFGSGTKLEIKR	91.9	92.6	100
847.16D10 (antibody, V domains shown) VH: QVQLQQSGAELVRPGASVKLSCKASGYTFTGYWLNWVKQRPGQGLEWIGMIDPSDSETHYNQVFKDKATMTVDRSSSTAYMQLSGLTSEDSAVYYCANSNYASGSWGQGTTLTVSS VL: QAVVTQESALTTSPGETVTLTCRSSTGAVTTSNYANWDQEKPDHLFTGLIGGTNNRAPGVPARFSGSLIGDKAALTITGAQTEDEAIYFCALWYSNHLVFGGGTKVTVL	14.4	–	–
14H10.2C9 (antibody, mouse IgG2a, V domains shown) VH: QIQLVQSGPELKKPGETVKISCKASGYTFTTYGMGWVKQAPGKDLKWMGWINTYSGVPTYADDFKGRFAFSLETSASTAYLQISNLKNEDTATYFCSTPYEYDGAYWGQGTLVTVSA VL: not shown	86.3	55.6	54
6B3.2D3 (antibody, human IgG4 S228P, kappa, V domains shown) VH: QVQLKQSGPGLVQPSQSLSITCTVSGFSLTSYGVHWVRQPPGKGLEWLGVIWSGGSTDYNAAFISRLSISKDNSKSQVFFKMNSLQADDTAIYYCAKGPYDYDLGWFAYWGQGTLVTVSA VL: SIVMTQTPKFLLVSAGDRVTITCKASQSVSNDVAWYQQKPGQSPKLLIYYASNRYTGVPDRFTGSGYGTDFTFTISTVQAEDLAVYFCQQDYTSPYTFGGGTKLEIKR	98.9	0.2	-1.2
15G7.2A7 (antibody, human IgG4 S228P, kappa, V domains shown) VH: EVQLQQSGPELVKPGASVKISCKASGYTFTDYYMNWVKQSHGKSLEWIGDINPNNGGTNYNQKFKGKATLTVDKSSSTAYMELRSLTSEDSAVYYCTSGYGFPYWGQGTLVTVSA VL: DIQMNQSPSSLSASLGDTISITCRASQNINIWLSWYQQKPGNIPQLLIYKASNLHTGVPSRFSGSGSGTDFTLTISSLQPEDIATYYCLQGQSYPLTFGAGTKLVMKR	110	31	46.1
20D11.2C6 (antibody, mouse IgG2a, V domains shown) VH: EVQLQQSGPELVKPGASVKISCKASGYTFTDFYINWVKQSHGKSLEWIGDINPKNGGINYNPKFKIKATLTVDKSSSTSYMDLRGLTSEDSAVYYCTSGYGFPYWGQGTLVTVSA VL: DIQMNQSPSSLSASLGDTITITCRASQNIYIWLSWYQQKPGNIPKLLIYKASNLHTGVPSRFSGSGSGTDFTLTISTLQPEDIATYFCLQGQSYPLTFGAGTKLEMKR	89.4	43.7	69.1
F846TC.7F10 (antibody, human IgG4 S228P, kappa, V domains shown) VH: EVQLVESGGDLVKPGGSLKLSCAASGFTFSNYGLSWIRQTPDKRLEWVATISSGGSYTYYPDSVKGRFTISRDSAKNTLYLQMSSLKSEDTAMYYCARHAHYYGVSPYYFDYWGQGTCLTVSS VL: not shown	96.1	-2.5	72.3
849.5H1 (antibody, V domains shown) VH: QVQLKESGPVLVAPSQSLSITCTVSGFSLTSYGIHWVRQPPGKGLEWLGVIWAGGSTNYNSALMSRLSISKDNSKSQVFLKMNSLQIDDTAMYYCAKPPHDYDQAWFAYWGQGTLITVSA VL: DIQMNQSPSSLSASLGDTITITCHASQNINVWLSWYQQKPGNIPKLLIYQASNLHTGVPSRFSGRGSGTGFTLTISSLQPEDIATYYCQQGQSSPFTFGSGTKLEIK	87.5	–	–
2D10-VH0-VL0 (antibody, human IgG4 S228P, kappa, V domains shown) VH: QVQLQQSGPELVKPGASVKISCKASGYTFTDYYINWVKQRPGQGLEWIGWIYPGSQDTKYNEKFKGKATLTVDTSSSTAYMQLGSLTSEDSAVYFCANYFGSSGWFFDVWGTGTTVTVSS VL: DIVMTQAAFSNPVTLGTSASISCRSSKSLLHSDGITYLYWYLQRPGQSPQLLIYRMSNLASGVPDRFSGSGSGTDFTLRISRVEAEDVGVYYCAQMIEFPLTFGAGTILELKR	62.4	21.7	39.6
3B11.2G2 (antibody, mouse IgG2a, V domains shown) VH: QIQLVQSGPELKKPGETVKISCKTSGYKFKTYVMSWVKQAPGKALKWMGWINTYSGVPTYADDFKGRFAFSLETSASTAYLEIINLKNEDTATYFCARDGNYGDPMDYWGQGTSVTVSS VL: not shown	92.7	-4.6	46.1
13A12.2E5 (antibody, mouse IgG2a, V domains shown) VH: QIQLVQSGPELKKPGETVKISCKTSGYKFKTYVMSWVKQAPGKALKWMGWINTYSGVPTYADDFKGRFAFSLETSASTAYLEIINLKNEDTATYFCARDGNYGDPMDYWGQGTSVTVSS VL: DVVMTQTPLTLSVAIGQPASISCKSSQSLLYTNGKTYLNWLLQRPGQSPKRLIYLLSKLDSGVPDRFSASGSGTDFTLKISRVEAEDLGVYYCLQSTHFPLTFGAGTKLEMKR	87.1	39.4	61.8
847.13E2-mH0mL1 (antibody, V domains shown) VH: EVQLQQSGPELVKPGASVKVSCKASGYSFTDYNMYWVMQSHGKSLEWIGYIDPYNDATSYSQKFTGKATLTVDKSSSTAFMHLNSLTSEDSAVYYCARWGRYEYYAMDYWGQGTSVTVSS VL: DIVMTQSPASLPVSLGQRATISCRASKSVTTSAYSYIHWYQQRPGQPPKLLIYLASNLESGVPARFSGSGSGTDFTLNIHPVEEEDAATYYCQHNRELPPTFGGGTKLEIN	79.9	–	–
847.13E2-mH0mL2 (antibody, V domains shown) VH: EVQLQQSGPELVKPGASVKVSCKASGYSFTDYNMYWVMQSHGKSLEWIGYIDPYNDATSYSQKFTGKATLTVDKSSSTAFMHLNSLTSEDSAVYYCARWGRYEYYAMDYWGQGTSVTVSS VL: DIVLTQSPATLSVTPGDSVSFSCRASQIINNNLHWYQQKSHESPRLLIRYTSQSISGIPSRFSGSGSGTDFTLSINNVETEDFGMYFCQQTNSWPLTFGAGTKLELK	18.8	–	–
F846TC.14E4 (antibody, human IgG4 S228P, kappa, V domains shown) VH: QVTLKESGPGILQPSQTLSLTCSFSGFSLSTSGMGVGWIRQPSGKGLEWLAHIWWDDDKYYNTALKSGLTISKDASKNQVFLKIASMDTADTATYYCARNLYDGSYGYYAMDYWGQGTSVTVSS VL: DIVMTQAAFSNPVTLGTSASISCRSSKSLLHTNGITFLYWYLQKPGQSPQPLIYQMSNLASGVPDRFSSSGSGTDFTLRISRVEAEDVGVYYCAQNLELPWTFGGGTKLEINR	90.3	15.7	50.1
